Measured values published in article PMC4303595.

Molecular target: Ccc1(1-109), truncated recombinant fragment of Ccc1 that contains its chromodomain (Cryptococcus neoformans)
Experiment: fluorescence polarisation

Substance | Kd [µM]
unlabeled Cryptococcus H3K27me2 peptide | 119
unlabeled Cryptococcus H3K27me3 peptide | 28
